Source: US9371519B2, “Complex type sugar chain hydrolase” (National Institute of Advanced Industrial Science and …, priority 2011, dated 2016)

Assay: Hydrolysis activity for various PA-labeled sugar chains (HPLC peak area ratio, relative to M8A)
Format: biochemical
Conditions: 1 μM substrate, pH 5.3, 30° C.
Method: (§1) Using the Endo-Om partially purified enzyme solution of the present invention, hydrolysis activity for various PA-labeled commercially available sugar chains (TaKaRa-Bio Inc.) were measured, and the results are shown in the following (Table 1) together with the measurements in a literature on Endo-M (Non Patent Literature 6). The hydrolysis activity at that time was calculated from the peak area ratio between the PA-labeled sugar chain and its hydrolysate as substrates in HPLC, and the relative activity for the various sugar chains was calculated, with the hydrolysis activity for the sugar chain with an M8A structure set at 100%.
as §1, with “Endo-Cp” for “Endo-Om”, “2)” for “1)”
as §1, with “Endo-Pa” for “Endo-Om”, “3)” for “1)”
as §1, with “Endo-Zr” for “Endo-Om”, “4)” for “1)”
Comparison of hydrolysis activity for PA-labeled sugar chains having various structures was carried out as follows. A reaction solution containing a sodium acetate buffer at final concentration of 100 mM (pH 5.3), 0.5 M of NaCl, 1 μM of any of various PA-labeled sugar chains (TaKaRa-Bio Inc.), and an Endo-Om purified enzyme solution (total volume: 10 μl) was incubated at 30° C. for 3 to 12 hours, and heated at 95° C. for 5 minutes thereby stopping the enzyme reaction. The reaction solution was subjected to HPLC, and enzymatic activity was calculated from the peak area ratio between the PA-labeled sugar chain as the substrate and its hydrolysate. The column used herein was Cosmosil 5C18-ARII (2.0.150 mm, Nacalai Tesque, Inc.), the solvents were a 0.1 M ammonium acetate buffer (pH 4.0: solvent A), a 0.1 M ammonium acetate buffer (pH 4.0), and 0.5% 1-butanol (solvent B). Linear gradient elution was carried out using the solvent B: 5%-50% at a flow rate of 0.5 ml/min over a period of 24 minutes, and detection was carried out using a fluorescence detector (excitation wavelength 320 nm, and fluorescence wavelength 400 nm). The enzymatic activity was calculated with the activity hydrolyzing 1 μmol of the PA-labeled sugar chain in 1 minute under the above-described reaction conditions as 1 Unit, and the relative activity for various sugar chains were calculated with the hydrolysis activity for the sugar chain having an M8A structure as 100%. […]

[1] = substrate drawing 1/drawing 14/drawing 27/drawing 40 (M3B structure), M8A = 100%
[2] = substrate drawing 2/drawing 15/drawing 28/drawing 41 (M5A structure per text), M8A = 100%
[3] = substrate drawing 4/drawing 17/drawing 30/drawing 43 (high-mannose type M8A-PA sugar chain, set at 100%)
[4] = substrate drawing 5/drawing 18/drawing 31/drawing 44 (M9A structure per text), M8A = 100%
[5] = substrate drawing 6/drawing 19/drawing 32/drawing 45, M8A = 100%
[6] = substrate drawing 7/drawing 20/drawing 33/drawing 46, M8A = 100%
[7] = substrate drawing 8/drawing 21/drawing 34/drawing 47, M8A = 100%
[8] = substrate drawing 9/drawing 22/drawing 35/drawing 48, M8A = 100%

B1: Endo-Om: endo-β-N-acetylglucosaminidase from methylotrophic yeast Ogataea minuta IFO10746, amino acid sequence SEQ ID NO. 1, 772 amino acids (protein, listed as Ogataea minuta)
chain: MAQSQLLGGAVRPVFFDKLEELRRWHTQSANLSRESELDSLNVATEPFSSYERAQTGSGSRSSEPVPGDKEDPPIKLMVCHDFKGGYQDYEDAQPLGYFPHPTGSRYFLQYPQLIDQFVYFSHHRVTVPPVNWINFCHRNGIKCFGTVIFEGNASKDFEELDRLVSRDEKGDFVFVDALIKLAAHYGFDGYLLNIETTFSNTKIAADLEPFAEQLKSGLHCLDSKNELIWYDSYVFPANKVSYTNGVTESNYNFFSLSDAFFSNYWWNIKNLQENIKNVGVLGVQKKIYVGYDVWGRGTLVGKGGFDSSLACKMIAKFKSNVALFAPAWTYESLGPKDFNQNDARFWIGLFENESSISSTVPPHSSAVYKINESSFIFYTNFSSGEGNRFFSKGSEVYRKNWVNGSLQFDLPIDLHRKDKNGLQWALDKSDAFHGGACLEIKYSEIKDENGYQIFNNQMVSDFTLFNFTKECHFPTVNVKVTYKLNHKTKSTFKIKIKYIIERRFRSVQTVRTGYLTIPLLSTSGKWFTVEESFQINLQTSHEYIVLESAHVTYDEDRSADSFFRSYIVEDSAITSVIDNEEYEKLINSEIYNDDEDEDWILVPSDVSISSSESQSNDSKTQYLGRKLFGNKSTPKTRTLEGTAPLLRIGEFAIISANNYPSSNFLAVTSVKSIESSRLEGDSLVLLNWQVGEGHQKGVCYYIIYVNGAVVGLSVAPKFIYQDTELASENSASARSNYKKSGLGSSSDRKSKVRVDSVDKLGNVFTGSEVWV
Relative activity (hydrolysis activity for PA-labeled sugar chain) [1]: 55.9%
Relative activity (hydrolysis activity for PA-labeled sugar chain) [2]: 13.7%
Relative activity (hydrolysis activity for PA-labeled sugar chain) [3]: 100%
Relative activity (hydrolysis activity for PA-labeled sugar chain) [4]: 81.3%
Relative activity (hydrolysis activity for PA-labeled sugar chain) [5]: 0.8%
Relative activity (hydrolysis activity for PA-labeled sugar chain) [6]: 5.9%
Relative activity (hydrolysis activity for PA-labeled sugar chain) [7]: 1.6%
Relative activity (hydrolysis activity for PA-labeled sugar chain) [8]: 4.6%

B2: Endo-Pa: endo-β-N-acetylglucosaminidase from Pichia anomala ATCC36904, amino acid sequence SEQ ID NO. 9, 656 amino acids (protein, listed as Pichia anomala)
chain: MQHDHAAIKFEEDSISSQRFSSLDEVEKWYNTKNRSPLDDLRIPRESLSHYNRFRDNNDEIKVLVCHDFKGNYQEGEDENPLGYFPHSSGQHYFIQFPSLVDLFIFFSHYKIAVPPVSWINSLHRQGIPVLGTLIFEGTDVSESDKLLEKNENGDFKYLEILCELVRHYGFDGWLVNMESHFSSVAKAQDLLLFDEALRSTLHLKVPGSKLIWYDSLITQKNRVFYQNAVNEWNYDHFSTSDLFFTNYWWNEEDLKRNILNIGLQGVKQKLFVGVDIWGRGSRIGNGGFESGLAINYLKRYSTNVALFAPAWTYENFEEDQFLIKDRKFWIGDQTSDETGGSVATYVSHYTTPVYVKDQNVKFYTNFSVGEGTKYRVFAHTVFKNNWVNGNLQLPTPIIDNEKRIDIYYKESFNGGSSLKVTQRNSILNDGKSNILQLFSFKNDIHSNNLNVSVSFKYLSEIPLNSTFQLEIKFYIERRYRSVTRVRDGTFKLPLAFSNKNWKYIETSFALPRLQIREHFVLEGLQIRWVDNVDELSSSIGTSGDFTESWIIVPQNSDPNAVYELLIGDLLVEGIKTANGNIDAVTKLSRKITLDSRSILATWKDDTEVLYWIIYVNAKFLGIAHKSLWRVQRGDKLRVDVFTRSGKLVKGEDIFI
Relative activity (hydrolysis activity for PA-labeled sugar chain) [1]: 152%
Relative activity (hydrolysis activity for PA-labeled sugar chain) [2]: 94.3%
Relative activity (hydrolysis activity for PA-labeled sugar chain) [3]: 100%
Relative activity (hydrolysis activity for PA-labeled sugar chain) [4]: 115%
Relative activity (hydrolysis activity for PA-labeled sugar chain) [5]: 4.0%
Relative activity (hydrolysis activity for PA-labeled sugar chain) [6]: 35.4%
Relative activity (hydrolysis activity for PA-labeled sugar chain) [7]: 36.3%
Relative activity (hydrolysis activity for PA-labeled sugar chain) [8]: 40.5%

B3: Endo-Zr: endo-β-N-acetylglucosaminidase from Zygosaccharomyces rouxii ATCC2623, amino acid sequence SEQ ID NO. 13, 639 amino acids (protein, listed as Zygosaccharomyces rouxii)
chain: MKRINQVPGKPEITSLYFDDLNSLQRWFDKGFMDSRDLSNVPKERYSNYVKFEKDSIITIPNLSARKTEIIVCHDFKGGYQSGHDLYPNGQYGTESCKPYSLRYPEIVDKFVYFSHHCVTIPPSPWTNYLHRHSIPVLGTLILEHYPHNGELFKKNAKGEFLYVKYLVELCRKFHFEGWLINFETVFGNNSKQVIPFLRELTARVECEIYGGSVIWYDAFTTFSNKPSHQNEVNLFNYDAYENSSQFMTNYMWDSHNVGNSLRNVGALGMHSHVALGVDVWGRNMQVCRGGFESNIAIYYAKRFGTNAVIFAPGWTYENFGEDQFYEKDDIFWGNIKSTLQLDSYSDSQLSSWFVSESKKTRYFTTFFSTGSGNFFNLNGRRISNDNWVQLGLSTPFPVNSHSYLSFKDSFVGGSCLALPLSPMENGKLHLFRFEQFIKDQQKTSDSEIRVKLSYKSLGALPPVKLVIKCFVIRRGKRSKTILKVDDVSLVLPLSHSACQTAQGSTKWAVVEQIVPLPSLESRFLEEYYVEDAHLEWTMDNNHDEWLMVPERTEDLDCKLLIGSLCLEIGPHEDNNKRQIVRNGPQLSWQDNESSFMWLKLQDGKLDSVLFTPTTKVNGKQPTILECGRNGTLKFVVKK
Relative activity (hydrolysis activity for PA-labeled sugar chain) [1]: 85.7%
Relative activity (hydrolysis activity for PA-labeled sugar chain) [2]: 39.8%
Relative activity (hydrolysis activity for PA-labeled sugar chain) [3]: 100%
Relative activity (hydrolysis activity for PA-labeled sugar chain) [4]: 33.4%
Relative activity (hydrolysis activity for PA-labeled sugar chain) [6]: 13.2%
Relative activity (hydrolysis activity for PA-labeled sugar chain) [7]: 17.3%
Relative activity (hydrolysis activity for PA-labeled sugar chain) [8]: 30.0%

B4: Endo-Cp: endo-β-N-acetylglucosaminidase from Candida parapolymorpha DL-1 ATCC26012, amino acid sequence SEQ ID NO. 5, 745 amino acids (protein, listed as Candida parapolymorpha)
chain: MPRNTAKHSSLPQTNLPLSSLESSFFDSLDELANWERRIHEKSFELDELNKPTEKLAHYTRARQQSTSEDVKLLVCHDLKGGYQVNEDEDPLGYFPHPDGQHYFLQYPQLVDKFVYFSHHRVSIPPVSWINVCHRNAIKCLGTVIFEGNTYRDFEEADKLLTKQDGEYVFVRCLVALVEYFQFDGYLFNIETRFSNTRIASLLEPFLEQLRAELHVRNPSTELIWYDSYIYPENRVLYKNGVTEANYNFFSCCDSFFTNYWWNVKHLQDNIKNVGVLGSRLKVYAGYDVWGRGTMIGKGGYDSALACQMIKKYRSNVALFAPAWTYEYLARKDFTQNDTRFWIGLFDGESSMATTFKPYSSPLYKINDSNFVFYTNFGSGEGCAFYECGEKVYRDNWVNGSLQMEIPYAIHTRNKNGIQWTLSKEDSFHGGSCVEIKYNEVVDDKGYQVFNNQTINSFSLFSFVQDCSFPTVNVKLTYKLNHKTKSFFKLKIGYYIERRYRTVQKVRSGCLVVPLLSTNDQWFTIEEPFHVSLQNSHEFIVLDSATIFYEETEDPFMRAHVVEDQSTSSVIDNEEYEKLMNSEIYFDDEDEDWILVPSDISMESTDNGGRENHTWKVISNQIRKKHPKSHPSTSPVLKLGELAIINANDYPSDSFFKLMPVNSIDVRRWEGKILLIWKTNQDSVLYHLIFVDDVFQGISLVSKFVFEDQAVDEKSFKTKSGGSTKVRIDTVNRLGILVKGTDM
Relative activity (hydrolysis activity for PA-labeled sugar chain) [1]: 37.3%
Relative activity (hydrolysis activity for PA-labeled sugar chain) [2]: 15.1%
Relative activity (hydrolysis activity for PA-labeled sugar chain) [3]: 100%
Relative activity (hydrolysis activity for PA-labeled sugar chain) [4]: 21.6%
Relative activity (hydrolysis activity for PA-labeled sugar chain) [5]: 0.4%
Relative activity (hydrolysis activity for PA-labeled sugar chain) [6]: 4.7%
Relative activity (hydrolysis activity for PA-labeled sugar chain) [7]: 1.1%
Relative activity (hydrolysis activity for PA-labeled sugar chain) [8]: 3.1%
